Measured values: the supplement of paper PMC9170038

Test system: MS2 coat protein
Assay: apparent KD of MS2 coat protein; designed switch direction (-1 OFF switch, 1 ON switch): 1; higher = weaker reporter binding
How it was run: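 Normalised cluster fluorescence was curve-fitted, and each design's median over clusters is its apparent KD. Before this, SNAP-549-labelled MS2 coat protein was titrated from 0.7 or 1.5 nM, doubling to 3 µM, over RNA switches transcribed on Illumina chips by stalled E. coli RNA polymerase. Titrations had no input, 200 uM small-molecule ligand, or an oligonucleotide input, and steps lasted 0.8–1.5 h (lowest) to 10–20 min (highest).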

[1] = input ligand: microRNA oligo, concentration not stated
[2] = Eterna round: R95, input ligand: FMN 200 uM
[3] = Eterna round: R95, input ligand: microRNA oligo, concentration not stated
[4] = Eterna round: R95, input ligand: none

With “CUGAGCGAUCAAGGAUAUCACGUCGUUUAGACGUGAGAAGGUGAUCAUAACAUGAGGAUCACCCAUGUAUUACAUGAAGCUCAG [SSNG1/2-A3] (Eterna round: R96, puzzle: Same State NG 1)” the “apparent KD of MS2 coat protein” value (input ligand: FMN 200 uM) was 208 nM, the “apparent KD of MS2 coat protein” value [1] was 462 nM and the “apparent KD of MS2 coat protein” value (input ligand: none) was 1240 nM.

With “CCGGUUUAUGGAGGAUAUGGAGCCUUAUUGGCUCCAGAAGGCUAAUACAUGAGGAUCACCCAUGUUCCGGCGGUCAAUAGACCG [Eli NG1ss - 58] (Eterna round: R96, puzzle: Same State NG 1)” the “apparent KD of MS2 coat protein” value (input ligand: FMN 200 uM) was 23.9 nM, the “apparent KD of MS2 coat protein” value [1] was 77.8 nM and the “apparent KD of MS2 coat protein” value (input ligand: none) was 126 nM.

“GCUCGAAUCACAACCAACAUGAGGAUCACCCAUGUGUGUUGGUAGGAUAUCGUUUCUAAGGGAAACGAGAAGGGCCGAACGAGC [SameState NG3 #8] (Eterna round: R96, puzzle: Same State NG 3)” was tested, and the “apparent KD of MS2 coat protein” value (input ligand: FMN 200 uM) was 18.9 nM, the “apparent KD of MS2 coat protein” value [1] was 12.4 nM and the “apparent KD of MS2 coat protein” value (input ligand: none) was 21.7 nM.

“GCUAGAAAUAAAGCCAACAUGAGGAUCACCCAUGUAUGUUGGUAGGAUAUCGUAUGCAAAGCAUACGAGAAGGGCUAAUCUAGC [Mat - Same State NG 3 - JL Mod - D66] (Eterna round: R96, puzzle: Same State NG 3)” was tested, and the “apparent KD of MS2 coat protein” value (input ligand: FMN 200 uM) was 90.8 nM, the “apparent KD of MS2 coat protein” value [1] was 57.4 nM and the “apparent KD of MS2 coat protein” value (input ligand: none) was 90.2 nM.

For “AUUAAUAAUCUAGGAUAUCACGUCGUUUAGACGUGAGAAGGAGAUCAUAACAUGAGGAUCACCCAUGUAUUACAUGAAGUUAAU [SSNG1/7-B3] (Eterna round: R96, puzzle: Same State NG 1)”, the “apparent KD of MS2 coat protein” value (input ligand: FMN 200 uM) was 22.2 nM, the “apparent KD of MS2 coat protein” value [1] was 27.8 nM and the “apparent KD of MS2 coat protein” value (input ligand: none) was 37.5 nM.

“GGUCGGAACCACAUGAGGAUCACCCAUGUUCCGGAAACGGUACAGGAUAUCUGUCCGAAAAGGUCAGAGAAGGGUGAACCGACC [Fiskers NG3ss - 77] (Eterna round: R96, puzzle: Same State NG 3)” was tested, and the “apparent KD of MS2 coat protein” value (input ligand: FMN 200 uM) was 1090 nM, the “apparent KD of MS2 coat protein” value [1] was 349 nM and the “apparent KD of MS2 coat protein” value (input ligand: none) was 312 nM.

For “CUGAGCGAUUAAGGAUAUCACGUCGAAUAGACGUGAGAAGGUGAUCAUAACAUGAGGAUCACCCAUGUAUUACAUGAAGCUCAG [SSNG1/3-A1] (Eterna round: R96, puzzle: Same State NG 1)”, the “apparent KD of MS2 coat protein” value (input ligand: FMN 200 uM) was 305 nM, the “apparent KD of MS2 coat protein” value [1] was 100 nM and the “apparent KD of MS2 coat protein” value (input ligand: none) was 108 nM.

In the case of “AGGUGGUGUGGAAAGGAUAUACUGUUGAGGACAUGAGGAUCACCCAUGUGGUAGAGGACGUAAGGGUAGAAGGUUCGGGAUUGGU [JR_SS@_Sub021] (puzzle: Same State 2)”, the “apparent KD of MS2 coat protein” value [2] is reported as 46.2 nM, the “apparent KD of MS2 coat protein” value [3] is reported as 50.2 nM and the “apparent KD of MS2 coat protein” value [4] is reported as 75.4 nM.

In the case of “AUAAGUUCGAUGCUCGUCUUUCCGUACAAACAUGAGGAUCACCCAUGUGAUCGGGAAGUAGCCCGAUCAGUAUGGCC [Leceen] (puzzle: Sensor for hsa-mir-208a)”, the “apparent KD of MS2 coat protein” value [2] is reported as 30.6 nM, the “apparent KD of MS2 coat protein” value [3] is reported as 16.3 nM and the “apparent KD of MS2 coat protein” value [4] is reported as 27.5 nM.

In the case of “GCAUCACAUGAGGAUCACCCAUGUCUUCGGAGUCGAGGAUAUGGUCACUGUAAACAGUGGCCAGAAGGCGAGAUGC [SS1 - Son of Teenbexe] (puzzle: Same State 1)”, the “apparent KD of MS2 coat protein” value [3] is reported as 41.4 nM.

With “AAGUAACAUGAGGAUCACCCAUGUGAGGUGAGCGUAGGAUAUCGAGAAGGAAGGGUGGAGCGAGAAGGACGAAGGA [JR_SS1_Sub0102] (puzzle: Same State 1)” the “apparent KD of MS2 coat protein” value [2] was 349 nM, the “apparent KD of MS2 coat protein” value [3] was 192 nM and the “apparent KD of MS2 coat protein” value [4] was 501 nM.

In the case of “CUUUAUCACUAUACAUGAGGAUCACCCAUGUUAUCAUCAUGAGAGGAUAUCGUAUUUGGAUUUUUCGAGAAGGCUCUAUUGUAU [JR_SSNG3_Sub077] (Eterna round: R96, puzzle: Same State NG 3)”, the “apparent KD of MS2 coat protein” value [1] is reported as 158 nM.

With “UUGAGAUGUACAGGAUAUGGUGAGGAUCACCCACUAGAAGGGUGCACAUGUGAAUCGGACAUGAGGAUCACCCAUGUUGGGCGU (Eterna round: R96, puzzle: Same State NG 1)” the “apparent KD of MS2 coat protein” value (input ligand: FMN 200 uM) was 108 nM, the “apparent KD of MS2 coat protein” value [1] was 224 nM and the “apparent KD of MS2 coat protein” value (input ligand: none) was 209 nM.
